Experimental findings from US20230056815A1 (VIELA BIO, published 2023) are described below.

Test [1] deals with T1, human soluble FLT3L (recombinant huFLT3L) (human, UniProt P49771 27-184).
T1 sequence (looked up): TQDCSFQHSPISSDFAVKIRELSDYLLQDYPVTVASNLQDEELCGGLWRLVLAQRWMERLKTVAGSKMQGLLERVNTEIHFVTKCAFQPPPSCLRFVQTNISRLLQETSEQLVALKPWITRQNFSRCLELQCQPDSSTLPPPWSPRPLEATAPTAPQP
Briefly: cell-based or functional assay.

In test [2] the target is cynomolgus monkey soluble FLT3L (cynomolgus monkey). The test is described as follows: cell-based or functional assay.
The next test deals with T2, mouse soluble FLT3L (mouse, UniProt P49772 27-189).
T2 construct: extracellular domain; also called mouse sFLT3L; muFLT3L
T2 sequence (looked up): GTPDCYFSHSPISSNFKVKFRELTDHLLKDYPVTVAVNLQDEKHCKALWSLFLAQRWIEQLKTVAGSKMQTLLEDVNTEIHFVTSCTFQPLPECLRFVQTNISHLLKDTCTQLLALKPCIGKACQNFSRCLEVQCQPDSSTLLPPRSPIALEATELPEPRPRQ
The test is described as follows: inhibition of FLT3 downregulation on RS4;11 cells by soluble mouse FLT3L (N/A in Table 3). How it is done:
Screening assay conditions were further refined to determine ideal cell culture conditions for evaluating anti-FLT3L candidate clones. Final conditions were: 50,000 RS4;11 cells per well incubated with 96 pM rhuFLT3L with or without anti-FLT3L mAb candidate clones in complete Roswell Park Memorial Institute (RPMI) media with one percent bovine serum albumin (BSA) for 2 hours in an humidified incubator set at 37° C., 5% CO2. Subsequent downregulation of FLT3 expression was determined by flow cytometry as measured either as raw MFI or % downregulation. […] (FIG. 3A). Assay efficacy was confirmed using a commercially available mouse anti-huFLT3L antibody control (MAB608, R&D Systems) (FIG. 3B). Due to the cross-species reactivity of FLT3 with its ligand, this assay was effective for testing clones against human, cyno, and rodent FLT3L, despite being a human cell line. For mouse FLT3L, the EC80 was 36 pM.
Upon ligation of FLT3L to FLT3, the receptor dimerizes, autophosphorylates, and propagates a signaling cascade once internalized. This process, measured by FLT3 downregulation, can be inhibited by antibodies that bind FLT3L. Thus, lead candidates were tested for their ability to inhibit FLT3 downregulation on RS4;11 cells by binding human, mouse, or cynomolgus monkey (cyno) soluble FLT3L (sFLT3L). […] FLT3 expression on RS4;11 cells was determined using flow cytometry and reported as MFI.

Test [3] has as its target T3, cynomolgus monkey FLT3L on CHO cells (cynomolgus monkey).
T3 construct: whole, on cells; also called cell surface cyno FLT3L
Briefly: flow cytometry on CHO cells expressing full-length cyno FLT3L, PE anti-hu IgG. How it is done: (§1) Consistent with this, cell surface binding to human, cyno, and mouse FLT3L was evaluated by transfecting Chinese hamster ovary (CHO) cells with the respective full-length protein for each species. Candidate clones were incubated with FLT3L-expressing cell lines for 1 hour at 4° C. before being washed twice to remove unbound antibody. Cells were then incubated with PE-labeled goat anti-hu IgG secondary detection pAb to quantitate bound antibody which was measured by flow cytometric analysis of PE signal. The huFLT3-Fc construct, on a hu IgG backbone, was used as a positive control reagent for FLT3L expression as it cross reacts with cyno and mouse, in addition to human ligand.
(§2) As differences were apparent in the degree of receptor occupancy for each clone, both EC50 and max occupancy were noted (expressed as percent relative to FLT3-Fc) and taken into account in the final evaluation. Results are shown in Table 4 for human, cyno, and mouse FLT3L expressed in CHO cells.

Test [4] addresses T4, recombinant human colony stimulating factor 1 (CSF1) (human, UniProt P09603 33-190, limits assumed).
T4 construct: also called huCSF1; huCSF
T4 sequence (looked up): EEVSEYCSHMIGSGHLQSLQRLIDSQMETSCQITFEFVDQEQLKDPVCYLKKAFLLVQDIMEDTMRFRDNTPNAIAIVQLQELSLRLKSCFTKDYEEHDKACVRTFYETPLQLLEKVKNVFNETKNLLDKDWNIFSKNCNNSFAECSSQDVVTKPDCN
The test is described as follows: ELISA on coated recombinant human CSF1. As for the experimental part:
(§3) To test this, an ELISA plate was coated with 2 µg of recombinant human SCF or CSF1. After washing, the plate was blocked with 3% milk in Tris-Phosphate Buffered Saline (TPBS) and lead antibodies were added in serial (×2) dilution, starting at 50 µg/ml. After incubation, unbound antibody was removed by washing and bound antibody was detected using anti-human IgG-HRP in combination with TMB substrate for color development. Commercially available goat anti-SCF pAb and mouse anti-CSF1 mAb were used as positive binding controls.

In test [5] the target is T5, human FLT3L on the cell surface (human, UniProt P49771 27-235).
T5 construct: whole, on cells; The assay field of each row says which cells carried it; also called cell-surface FLT3L; huFLT3L-expressing CHO cells
T5 sequence (looked up): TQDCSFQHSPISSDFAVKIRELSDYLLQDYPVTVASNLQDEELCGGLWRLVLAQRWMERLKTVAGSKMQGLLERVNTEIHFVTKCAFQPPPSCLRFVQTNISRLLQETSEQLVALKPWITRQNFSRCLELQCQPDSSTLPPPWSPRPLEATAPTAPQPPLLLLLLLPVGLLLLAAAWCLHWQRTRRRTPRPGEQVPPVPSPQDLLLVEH
The test is described as follows: flow cytometry on CHO cells expressing full-length human FLT3L, PE anti-hu IgG; CHO cells transfected with full-length human FLT3L, PE anti-hu IgG. How it is done: as §1, §2

Test [6] concerns the target T6, recombinant human stem cell factor (SCF) (human, UniProt P21583 26-189).
T6 construct: also called huSCF; KIT-ligand
The test is described as follows: ELISA on coated recombinant human SCF. As for the experimental part:
as §3

For another test, the target named is T7, mouse FLT3L on CHO cells (mouse, UniProt P49772 27-232).
T7 construct: whole, on cells; also called cell surface mouse FLT3L
T7 sequence (looked up): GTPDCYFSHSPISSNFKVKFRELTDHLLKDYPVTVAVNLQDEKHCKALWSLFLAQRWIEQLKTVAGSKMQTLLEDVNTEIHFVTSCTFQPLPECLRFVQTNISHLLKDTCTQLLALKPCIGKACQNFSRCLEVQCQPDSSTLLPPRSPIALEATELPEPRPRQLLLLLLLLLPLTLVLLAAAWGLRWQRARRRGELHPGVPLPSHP
The test is described as follows: flow cytometry on CHO cells expressing mouse FLT3L, anti-hu IgG-PE detection. How it is done:
as §1

The target of test [7] is T1, human soluble FLT3L (recombinant …). Briefly: cell-based or functional assay. The source holds these as a separate data set.
Test [8] addresses T5, human FLT3L on the cell surface. Briefly: flow cytometry on CHO cells expressing full-length human FLT3L, PE anti-hu IgG; CHO cells transfected with full-length human FLT3L; maximum occupancy relative to FLT3-Fc. As for the experimental part: as §1, §2

T6 sequence (P21583 26-189 limits assumed): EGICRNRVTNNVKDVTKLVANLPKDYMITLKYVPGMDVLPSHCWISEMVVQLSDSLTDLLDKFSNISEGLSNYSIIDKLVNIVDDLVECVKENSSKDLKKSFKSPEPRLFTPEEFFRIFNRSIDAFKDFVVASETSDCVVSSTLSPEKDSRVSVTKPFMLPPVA

B1: CAT5D9 antibody (IgG1 TM format) (antibody, V domains shown)
VH: QVQLVQSGAEVKKPGSSVKVSCKISGGTFSSYALSWVRQAPGQGLEWMGGIIPVFRTASYAQKFQGRVTITVDESASTGYIELSSLKSEDTATYYCASNNYVWGSYRFWGQGTTVTVSS
VL: NFMLTQPHSVSESPGKTVTISCTRTSGNIAGYFVQWYQQRPGSSPTTVIYEDYQRPSGVPDRFSGSIDRSSNSASLTISGLKPDDEADYYCQSYDDTSQGVFGAGTKVTVLG
notes: also called clone 5D9; parental 5D9
For the molecule B1, the “IC50 (nM), inhibition of FLT3 downregulation on RS4;11 cells” value in test [1] is 385 nM; in test [2] it was 564 nM. Further, the binding result with mouse soluble FLT3L is on record as “no binding”; in test [4], “no binding (tested: about 0.3 uM)”; in test [6], “no binding (tested: about 0.3 uM)”; with mouse FLT3L on CHO cells, “no binding (tested: x = -7.2 (x axis without title or unit))”. Further, the 50% effective concentration (EC50) in [3] was 1.1 nM; in test [5] it was 0.157 nM. For the same molecule, the “maximum occupancy (% relative to FLT3-Fc)” value in test [3] turned out to be 100%; in test [8] it was 40%. For the same molecule, in [7], the “IC50 (nM) against 0.476 nM FLT3L, ERK phosphorylation in CD133+ stem cells” value worked out at 187 nM. The “IC50 (nM) against 0.476 nM FLT3L, MEK phosphorylation in CD133+ stem cells” value in test [7] turned out to be 181 nM.
